# B1: Atypical chemokine receptor 2 (Homo sapiens), O00590 (parent)
# chain: MAATASPQPLATEDADSENSSFYYYDYLDEVAFMLCRKDAVVSFGKVFLPVFYSLIFVLGLSGNLLLLMVLLRYVPRRRMVEIYLLNLAISNLLFLVTLPFWGISVAWHWVFGSFLCKMVSTLYTINFYSGIFFISCMSLDKYLEIVHAQPYHRLRTRAKSLLLATIVWAVSLAVSIPDMVFVQTHENPKGVWNCHADFGGHGTIWKLFLRFQQNLLGFLLPLLAMIFFYSRIGCVLVRLRPAGQGRALKIAAALVVAFFVLWFPYNLTLFLHTLLDLQVFGNCEVSQHLDYALQVTESIAFLHCCFSPILYAFSSHRFRQYLKAFLAAVLGWHLAPGTAQASLSSCSESSILTAQEEMTGMNDLGERQSENYPNKEDVGNKSA
# B2: Tumor suppressor candidate 2 (Homo sapiens), O75896 (parent)
# chain: MGASGSKARGLWPFASAAGGGGSEAAGAEQALVRPRGRAVPPFVFTRRGSMFYDEDGDLAHEFYEETIVTKNGQKRAKLRRVHKNLIPQGIVKLDHPRIHVDFPVILYEV
# B3: Rho guanine nucleotide exchange factor 3 (Homo sapiens), Q9NR81 (parent)
# chain: MVAKDYPFYLTVKRANCSLELPPASGPAKDAEEPSNKRVKPLSRVTSLANLIPPVKATPLKRFSQTLQRSISFRSESRPDILAPRPWSRNAAPSSTKRRDSKLWSETFDVCVNQMLTSKEIKRQEAIFELSQGEEDLIEDLKLAKKAYHDPMLKLSIMTEQELNQIFGTLDSLIPLHEELLSQLRDVRKPDGSTEHVGPILVGWLPCLSSYDSYCSNQVAAKALLDHKKQDHRVQDFLQRCLESPFSRKLDLWNFLDIPRSRLVKYPLLLREILRHTPNDNPDQQHLEEAINIIQGIVAEINTKTGESECRYYKERLLYLEEGQKDSLIDSSRVLCCHGELKNNRGVKLHVFLFQEVLVITRAVTHNEQLCYQLYRQPIPVKDLLLEDLQDGEVRLGGSLRGAFSNNERIKNFFRVSFKNGSQSQTHSLQANDTFNKQQWLNCIRQAKETVLCAAGQAGVLDSEGSFLNPTTGSRELQGETKLEQMDQSDSESDCSMDTSEVSLDCERMEQTDSSCGNSRHGESNV
# B4: Rho guanine nucleotide exchange factor 3 (Homo sapiens), Q9NR81 (parent)
# chain: B3 chain
# partner: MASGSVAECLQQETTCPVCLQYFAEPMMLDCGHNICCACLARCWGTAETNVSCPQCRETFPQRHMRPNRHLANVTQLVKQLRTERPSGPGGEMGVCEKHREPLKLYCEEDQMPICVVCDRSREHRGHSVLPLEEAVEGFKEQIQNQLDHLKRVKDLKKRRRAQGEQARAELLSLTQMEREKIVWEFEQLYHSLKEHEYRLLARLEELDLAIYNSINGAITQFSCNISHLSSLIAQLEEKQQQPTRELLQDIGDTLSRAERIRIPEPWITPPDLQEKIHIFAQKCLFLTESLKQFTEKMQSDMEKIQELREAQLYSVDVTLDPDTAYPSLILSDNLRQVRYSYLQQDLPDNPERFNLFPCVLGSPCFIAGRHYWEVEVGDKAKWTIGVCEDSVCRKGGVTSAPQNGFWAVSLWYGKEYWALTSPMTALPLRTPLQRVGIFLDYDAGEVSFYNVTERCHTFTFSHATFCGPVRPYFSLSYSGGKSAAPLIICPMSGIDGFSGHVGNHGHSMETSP
# B5: Rho guanine nucleotide exchange factor 3 (Homo sapiens), Q9NR81 (parent)
# chain: B3 chain
# partner: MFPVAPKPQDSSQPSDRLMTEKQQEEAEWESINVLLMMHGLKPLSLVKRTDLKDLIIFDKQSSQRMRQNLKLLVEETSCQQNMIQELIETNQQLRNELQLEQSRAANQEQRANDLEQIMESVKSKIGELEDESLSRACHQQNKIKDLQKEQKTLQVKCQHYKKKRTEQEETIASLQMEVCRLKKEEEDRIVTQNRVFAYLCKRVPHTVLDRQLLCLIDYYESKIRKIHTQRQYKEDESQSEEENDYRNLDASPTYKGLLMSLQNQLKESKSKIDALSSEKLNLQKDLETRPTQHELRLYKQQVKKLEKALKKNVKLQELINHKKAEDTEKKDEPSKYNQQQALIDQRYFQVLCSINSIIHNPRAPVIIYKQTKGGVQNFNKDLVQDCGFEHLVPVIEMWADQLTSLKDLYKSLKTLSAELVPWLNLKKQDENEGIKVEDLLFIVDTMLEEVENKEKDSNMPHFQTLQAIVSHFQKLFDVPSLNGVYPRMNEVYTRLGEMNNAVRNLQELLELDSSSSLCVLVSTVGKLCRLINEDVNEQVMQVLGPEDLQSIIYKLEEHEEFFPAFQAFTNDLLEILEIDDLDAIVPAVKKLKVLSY
# B6: Isoform 2 of Synaptoporin (Homo sapiens), Q8TBG9-2 (parent)
# chain: MDPVSQLASAGTFRVLKEPLAFLRALELLFAIFAFATCGGYSGGLRLSVDCVNKTESNLSIDIAFAYPFRLHQVTFEVPTCEGKERQKLALIGDSSSSAEFFVTVAVFAFLYSLAATVVYIFFQNKYRENNRGPLIDFIVTVVFSFLWLVGSSAWAKGLSDVKVATDPKEVLLLMSACKQPSNKCMAIHSPVMSSLNTSVVFGFLNFILWAGNIWFVFKETGWHSSGQRYLSDPMEKHSSSYNQGGYNQDSYGSSSGYSQQASLGPTSDEFGQQPTGPTSFTNQI
# partner: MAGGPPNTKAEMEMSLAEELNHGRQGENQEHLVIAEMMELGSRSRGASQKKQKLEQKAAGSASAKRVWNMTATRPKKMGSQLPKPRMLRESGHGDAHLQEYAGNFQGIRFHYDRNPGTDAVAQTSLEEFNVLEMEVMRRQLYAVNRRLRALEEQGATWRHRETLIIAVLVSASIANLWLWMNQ
# B7: Isoform 2 of Synaptoporin (Homo sapiens), Q8TBG9-2 (parent)
# chain: B6 chain
# B8: CGG triplet repeat-binding protein 1 (Homo sapiens), Q9UFW8 (parent)
# chain: MERFVVTAPPARNRSKTALYVTPLDRVTEFGGELHEDGGKLFCTSCNVVLNHVRKSAISDHLKSKTHTKRKAEFEEQNVRKKQRPLTASLQCNSTAQTEKVSVIQDFVKMCLEANIPLEKADHPAVRAFLSRHVKNGGSIPKSDQLRRAYLPDGYENENQLLNSQDC
# partner: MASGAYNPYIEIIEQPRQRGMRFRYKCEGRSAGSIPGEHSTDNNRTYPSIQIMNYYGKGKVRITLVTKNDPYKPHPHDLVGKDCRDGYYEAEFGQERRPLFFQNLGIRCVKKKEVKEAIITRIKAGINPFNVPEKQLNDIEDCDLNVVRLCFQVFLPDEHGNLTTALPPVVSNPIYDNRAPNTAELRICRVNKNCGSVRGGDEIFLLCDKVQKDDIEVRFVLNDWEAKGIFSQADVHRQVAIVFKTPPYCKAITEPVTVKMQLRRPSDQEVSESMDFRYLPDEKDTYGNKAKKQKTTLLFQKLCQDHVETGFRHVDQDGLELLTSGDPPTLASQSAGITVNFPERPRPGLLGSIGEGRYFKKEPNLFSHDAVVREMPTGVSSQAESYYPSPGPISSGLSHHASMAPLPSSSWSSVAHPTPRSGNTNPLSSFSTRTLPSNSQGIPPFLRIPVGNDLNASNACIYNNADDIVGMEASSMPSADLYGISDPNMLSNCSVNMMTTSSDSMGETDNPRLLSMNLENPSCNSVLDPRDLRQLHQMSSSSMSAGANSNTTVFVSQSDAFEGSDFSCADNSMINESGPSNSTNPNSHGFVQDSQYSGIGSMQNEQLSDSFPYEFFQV
# Variants of: B1
# Conditions: with creb3_human CREB3, O43889
row,Variant,effect of a mutation on the interaction
1,V42M,with no effect

# Variants of: B2
# Conditions: with rbpms_human RBPMS
row,Variant,effect of a mutation on the interaction
1,R76Q,with no effect

# Variants of: B2
# Conditions: with mdfi_human MDFI
row,Variant,effect of a mutation on the interaction
1,R76Q,disrupting interaction strength

# Variants of: B3
# Conditions: with tri23_human TRIM23, P36406
# Chain of tri23_human TRIM23, P36406 (P36406 whole entry): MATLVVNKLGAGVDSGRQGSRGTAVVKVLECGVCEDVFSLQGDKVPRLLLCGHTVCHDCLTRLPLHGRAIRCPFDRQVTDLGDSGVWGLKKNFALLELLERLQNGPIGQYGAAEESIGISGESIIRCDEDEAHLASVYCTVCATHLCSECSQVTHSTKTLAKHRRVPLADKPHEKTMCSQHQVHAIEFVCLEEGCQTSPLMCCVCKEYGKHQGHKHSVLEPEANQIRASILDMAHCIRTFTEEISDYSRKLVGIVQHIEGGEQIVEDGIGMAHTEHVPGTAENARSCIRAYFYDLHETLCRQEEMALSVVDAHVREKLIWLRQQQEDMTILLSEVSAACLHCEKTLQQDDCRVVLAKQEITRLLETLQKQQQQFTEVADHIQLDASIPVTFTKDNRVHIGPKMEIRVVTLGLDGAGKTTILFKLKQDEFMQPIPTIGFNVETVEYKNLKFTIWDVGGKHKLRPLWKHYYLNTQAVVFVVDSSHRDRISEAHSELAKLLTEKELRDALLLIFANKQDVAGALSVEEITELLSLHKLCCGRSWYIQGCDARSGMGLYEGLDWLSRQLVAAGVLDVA
row,Variant,effect of a mutation on the interaction
1,P34S,with no effect

# Variants of: B4
# Conditions: with tri27_human TRIM27, P14373
row,Variant,effect of a mutation on the interaction
1,P34S,with no effect

# Variants of: B5
# Conditions: with cep70_human CEP70, Q8NHQ1
row,Variant,effect of a mutation on the interaction
1,P34S,with no effect

# Variants of: B6
# Conditions: with fate1_human FATE1, Q969F0
row,Variant,effect of a mutation on the interaction
1,A115P,with no effect

# Variants of: B7
# Conditions: with creb3_human CREB3, O43889
# Target sequence in this assay (O43889 whole entry): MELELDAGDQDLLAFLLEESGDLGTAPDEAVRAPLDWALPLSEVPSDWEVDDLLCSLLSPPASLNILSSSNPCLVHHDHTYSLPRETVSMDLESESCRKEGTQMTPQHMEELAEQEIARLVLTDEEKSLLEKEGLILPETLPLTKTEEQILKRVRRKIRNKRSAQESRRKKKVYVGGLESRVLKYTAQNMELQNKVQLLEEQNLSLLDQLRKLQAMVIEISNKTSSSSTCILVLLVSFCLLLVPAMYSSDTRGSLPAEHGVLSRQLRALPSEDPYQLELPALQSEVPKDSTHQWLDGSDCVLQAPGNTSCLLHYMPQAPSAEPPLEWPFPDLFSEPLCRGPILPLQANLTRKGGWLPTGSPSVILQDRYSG
row,Variant,effect of a mutation on the interaction
1,A115P,with no effect

# Variants of: B8
# Conditions: with rel_human REL
row,Variant,effect of a mutation on the interaction
1,R54C,disrupting interaction strength

# From IntAct's records for PubMed 29892012
